Patent publication US11994512B2, “Single-cell genomic methods to generate ex vivo cell systems that recapitulate in vivo biology with improved fidelity” (Massachusetts Institute of Technology, priority 2018, dated 2024)

B1: Q9EPC5 (protein, UniProt Q9EPC5 1-134, looked up)
chain: MPADLSGTWNLLSSDNFEGYMLALGIDFATRKIAKLLKPQKVIEQNGDSFTIQTCSSLRNYLVKFKVGEEFEEDNKGLDNRKCTSLVTWENDKLTCVQRGEKKNRGWSHWIEGDQLHLEMFCEGQVCKQTFQRA
modifications: full-length
B2: Q9DD24 (protein, UniProt Q9DD24 1-104, looked up)
chain: MKPCQKMEGNLEKEDEPKPEEEPKPEEKPEEGQEPEEEEKSEETFRERLIRSLQDFQEDIHNRHLSSDDLFRDVEELDEIRKVRNKLIVTRWKANRSHPYPYLM
modifications: full-length
B3: Q9JJ78 (protein, UniProt Q9JJ78 1-330, looked up)
chain: MEGINNFKTPNKSEKRKSVLCSTPCVNIPASPFMQKLGFGTGVSVYLMKRSPRGLSHSPWAVKKISLLCDDHYRTVYQKRLTDEAKILKNLNHPNIIGYRAFTEASDGSLCLAMEYGGEKSLNDLIEERNKDSGSPFPAAVILRVALHMARGLKYLHQEKKLLHGDIKSSNVVIKGDFETIKICDVGVSLPLDENMTVTDPEACYIGTEPWKPKEALEENGIITDKADVFAFGLTLWEMMTLCIPHVNLPDDDVDEDATFDESDFDDEAYYAALGTRPSINMEELDDSYQKAIELFCVCTNEDPKDRPSAAHIVEALELDGQCCGLSSKH
modifications: full-length
B4: Q9JME5 (protein, UniProt Q9JME5 1-1082, looked up)
chain: MSAAPAYSEDKGGSAGPGEPEYGHDPASGGIFSSDYKRHDDLKEMLDTNKDSLKLEAMKRIVAMIARGKNASDLFPAVVKNVACKNIEVKKLVYVYLVRYAEEQQDLALLSISTFQRGLKDPNQLIRASALRVLSSIRVPIIVPIMMLAIKEAASDMSPYVRKTAAHAIPKLYSLDSDQKDQLIEVIEKLLADKTTLVAGSVVMAFEEVCPERIDLIHKNYRKLCNLLIDVEEWGQVVIISMLTRYARTQFLSPTQNESLLEENPEKAFYGSEEDEAKGPGSEEAATAALPARKPYVMDPDHRLLLRNTKPLLQSRSAAVVMAVAQLYFHLAPKAEVGVIAKALVRLLRSHSEVQYVVLQNVATMSIKRRGMFEPYLKSFYIRSTDPTQIKILKLEVLTNLANETNIPTVLREFQTYIRSMDKDFVAATIQAIGRCATNIGRVRDTCLNGLVQLLSNRDELVVAESVVVIKKLLQMQPAQHGEIIKHLAKLTDNIQVPMARASILWLIGEYCEHVPKIAPDVLRKMAKSFTAEEDIVKLQVINLAAKLYLTNSKQTKLLTQYVLSLAKYDQNYDIRDRARFTRQLIVPSEQGGALSRHAKKLFLAPKPAPILESSFKDRDHFQLGSLSHLLNAKATGYQELPDWPEEAPDPSVRNVEVPEWTKCSNREKRKEKEKPFYSDSEGESGPTESADSEPESESESESKSSSGSGSGESSSESDNEEEDEEKGGGSESEQSEEEDEKKKKTKKKKASEGHREGSSSEEGSDSSSSSESEVTSESEEEQVEPASWRKKTPPGSKSAPVAKEISLLDLEDFTPPSVQPVSPPMVVSTSLAADLEGLTLTDSSLVPSLLSPVSSIGRQELLHRVAGEGLSVDYAFSRQPFSGDPHMVSLHIYFSNNSETPIKGLHVGTPKLPAGISIQEFPEIESLAPGESTTTVMGINFCDSTQAANFQLCTQTRQFYVSIQPPVGELMAPVFMSENEFKKEQGKLTGMNEITEKLTLPDTCRSDHMVVQKVTATANLGRVPCGTSDEYRFAGRTLTSGSLVLLTLDARAAGAAQLTVNSEKMVIGTMLVKDVIQALTQ
modifications: full-length
B5: Q9JMH7 (protein, UniProt Q9JMH7 1-418, looked up)
chain: MEEVPPYSLSSTLFQQEEQSGVTYRIPALLYLPPTHTFLAFAEKRTSVRDEDAACLVLRRGLMKGRSVQWGPQRLLMEATLPGHRTMNPCPVWEKNTGRVYLFFICVRGHVTERCQIVWGKNAARLCFLCSEDAGCSWGEVKDLTEEVIGSEVKRWATFAVGPGHGIQLHSGRLIIPAYAYYVSRWFLCFACSVKPHSLMIYSDDFGVTWHHGKFIEPQVTGECQVAEVAGTAGNPVLYCSARTPSRFRAEAFSTDSGGCFQKPTLNPQLHEPRTGCQGSVVSFRPLKMPNTYQDSIGKGAPATQKCPLLDSPLEVEKGAETPSATWLLYSHPTSKRKRINLGIYYNRNPLEVNCWSRPWILNRGPSGYSDLAVVEEQDLVACLFECGEKNEYERIDFCLFSDHEVLSCEDCTSPSSD
modifications: full-length
B6: Q9JJK5 (protein, UniProt Q9JJK5 1-391, looked up)
chain: MEPEPQPEPVTLLVKSPNQRHRDLELSGDRSWSVSRLKAHLSRVYPERPRPEDQRLIYSGKLLLDHQCLQDLLPKQEKRHVLHLVCNVKNPSKMPETSTKGAESTEQPDNSNQTQHPGDSSSDGLRQREVLRNLSPSGWENISRPEAVQQTFQGLGPGFSGYTTYGWLQLSWFQQIYARQYYMQYLAATAASGTFVPTPSAQEIPVVSTPAPAPIHNQFPAENQPANQNAAAQAVVNPGANQNLRMNAQGGPLVEEDDEINRDWLDWTYSAATFSVFLSILYFYSSLSRFLMVMGATVVMYLHHVGWFPFRQRPVQNFPDDGGPRDAANQDPNNNLQGGMDPEMEDPNRLPPDREVLDPEHTSPSFMSTAWLVFKTFFASLLPEGPPALAN
modifications: full-length
B7: Q9JIB0 (protein, UniProt Q9JIB0 1-185, looked up)
chain: MEPNRNCPLFGGAFSAILPTGAIDVSDLRPVPDNQEVFCHPVTDQSLIIELLELQAHVQGEAAARYHFEDVGRVQGARAVHVLSVQPLCLENLSLRGCCQDAWSLSGKQQVAKENQQVAKDVTLHQALLRLPQYQTDLLLTFNQPPCHSRSLGPENLSCPPWSLSNFEQLVTSLTLHDPNLFGPQ
modifications: full-length
B8: Q9DCT8 (protein, UniProt Q9DCT8 1-208, looked up)
chain: MASKCPKCDKTVYFAEKVSSLGKDWHKFCLKCERCNKTLTPGGHAEHDGKPFCHKPCYATLFGPKGVNIGGAGSYIYEKPQTEAPQVTGPIEVPVVRTEERKTSGPPKGPSKASSVTTFTGEPNMCPRCNKRVYFAEKVTSLGKDWHRPCLRCERCSKTLTPGGHAEHDGQPYCHKPCYGILFGPKGVNTGAVGSYIYDKDPEGTVQP
modifications: full-length
B9: Q9ERZ0 (protein, UniProt Q9ERZ0 1-503, looked up)
chain: MDMGKGRPRLKLPQMPEAHPQKSCAPDIIGSWSLRNREQLRKRKAEAQGRQTSQWLLGEQKKRKYQRTGKGNKRGRKRQGNVEQKAEPWSQTERERVQEVLVSAEEETEHPGNSATEALPLVPSPTKAVPADQCSEAHQESIQCQERAIQNHSQTHLSPTTCQGIAVLQHSPKMCQDMAEPEVFSPNMCQETAVPQTYPPKALEEMAAAEPLSPKMCQETTVSPNHSSKVPQDMAGPEALSPNMCQEPTVPQEHTLKMCHDVARPEVLSPKTHQEMAVPKAFPCVTPGDAAGLEGCAPKALPQSDVAEGCPLDTTPTSVTPEQTTSDPDLGMAVTEGFFSEARECTVSEGVSTKTHQEAVEPEFISHETYKEFTVPIVSSQKTIQESPEPEQYSPETCQPIPGPENYSLETCHEMSGPEDLSIKTCQDREEPKHSLPEGAQKVGGAQGQDADAQDSENAGAFSQDFTEMEEENKADQDPEAPASPQGSQETCPENGIYSSALF
modifications: full-length
B10: Q9JHT5 (protein, UniProt Q9JHT5 1-344, looked up)
chain: MAAGCCGVKKQKLSSSPPSGSGGGGGASSSSHCSGESQCRAGELGLGGAGTRLNGLGGLSGGGGSGGGGGCPLSPPQGCGGGGGGGGGGGSGSGGGGISLSPPLSCGVGTLLSTPAAATASSPSSSSSSPGSRKMVVSAEMCCFCFDVLYCHLYGYQQPRTPRFTNEPYPLFVTWKIGRDKRLRGCIGTFSAMNLHSGLREYTLTSALKDSRFPPMTRDELPRLFCSVSLLTNFEDVCDYLDWEVGVHGIRIEFINEKGSKRTATYLPEVAKEQGWDHIQTIDSLLRKGGYKAPITNEFRKTIKLTRYRSEKMTLSYAEYLAHRQHHHFQNGIGHPLPPYNHYS
modifications: full-length
B11: Q9ERH4 (protein, UniProt Q9ERH4 1-427, looked up)
chain: MTVPSAEELDSFKYSDLQNLAKRLGLRANMKADKLLKALKAHLNPETRKENKNQDENQFSTDETEIHVSSEEQAETESGGHVTKTRRRRRKKHKTIHGIPTSQTLLQDHLEMKGTDSSNFQNQENQENQDPRDTAEVPSLPEQRPEDGNAASSGEGEVNDIKDSKKPLEKRSLCTDEFSKLGNNKRTSATTPNFKKLHEARFKKMESIDEYIMRKKKHLKEHSSLNELKLDKKGIVTPVPPRGRLSVPCTPARQQCPQGHSATKMNVRFSAATKDNEHKCSLTKTPARKSPHVTAPGSASKGQAVFRTPKSKATERTSIAVITPFKLMTEATQTPSSSKKPVFDLKASLSRPLNYKPHKGKLKPWGQAKENNSLNERVSRVTFHRKTYKQPHLQTREERWKRQEQERKEKKEKLLEARRNLGVTKAQ
modifications: full-length

Test system: intracellular proteome of ENR+CD and ENR organoids
Assay: LC-MS/MS TMT proteomics of ENR+CD versus ENR organoids
Assay type: cell-based, C57BL/6 mice
Settings: ENR+CD versus ENR organoids, sample pairs in aggregate (n=4, 2 technical replicates from two biological donors)

Molecule | Average logFC
B1 | −2.14
B2 | 1.262
B3 | −1.167
B4 | −1.256
B5 | −1.61
B6 | 1.444
B7 | −1.426
B8 | 1.386
B9 | −1.361
B10 | 1.464
B11 | −1.264

Same assay, conditions: protein abundance ratio ENR+CD versus ENR organoids, sample pair M1-1; LC-MS/MS TMT proteomics

Molecule | M1-1 Log2 Median Normalized
B1 | −2.063
B2 | 1.266
B3 | −1.497
B4 | −1.059
B5 | −1.209
B6 | 1.863
B7 | −1.2
B8 | 1.983
B9 | −1.833
B10 | 1.463
B11 | −1.354

Same assay, conditions: protein abundance ratio ENR+CD versus ENR organoids, sample pair M1-2; LC-MS/MS TMT proteomics

Molecule | M1-2 Log2 Median Normalized
B1 | −2.064
B2 | 0.97
B3 | −0.959
B4 | −1.31
B5 | −1.761
B6 | 0.766
B7 | −1.555
B8 | 1.517
B9 | −1.41
B10 | 1.751
B11 | −0.911

Same assay, conditions: protein abundance ratio ENR+CD versus ENR organoids, sample pair M2-1; LC-MS/MS TMT proteomics

Molecule | M2-1 Log2 Median Normalized
B1 | −2.2365
B2 | 1.6605
B3 | −0.7695
B4 | −1.1945
B5 | −1.8685
B6 | 1.1435
B7 | −1.6355
B8 | 0.9975
B9 | −1.0155
B10 | 1.5015
B11 | −1.2565

Same assay, conditions: protein abundance ratio ENR+CD versus ENR organoids, sample pair M2-2; LC-MS/MS TMT proteomics

Molecule | M2-2 Log2 Median Normalized
B1 | −2.196
B2 | 1.153
B3 | −1.442
B4 | −1.459
B5 | −1.601
B6 | 2.005
B7 | −1.315
B8 | 1.047
B9 | −1.185
B10 | 0.056
B11 | −1.536

Same assay, conditions: up = enriched in ENR+CD, down = enriched in ENR; FDR<0.05 and log fold change cut-off

Molecule | change
B1 | down
B2 | up
B3 | down
B4 | down
B5 | down
B6 | up
B7 | down
B8 | up
B9 | down
B10 | up
B11 | down
